From patent publication US20250298024A1 come the findings set out here.

The target in experiment [1] is polypeptide molecule 7 (bovine) (UniProt P19111). Nature of the experiment: HI-1000 capture immunoassay, ALP chemiluminescence; calibrator C3 (0.2846914 ug/mL), mean of 3.
Experiment [2] has the same target. Nature of the experiment: HI-1000 capture immunoassay, ALP chemiluminescence; calibrator C1 (0.0177932 ug/mL), mean of 3.
Experiment [3] has the same target. Nature of the experiment: HI-1000 capture immunoassay, ALP chemiluminescence; calibrator C1 (0.0177932 ug/mL), run 2.
For experiment [4] the target is unchanged. Nature of the experiment: HI-1000 capture immunoassay, ALP chemiluminescence; calibrator C4 (2.562222 ug/mL), run 3.
Experiment [5] shares this target. As to the kind of experiment: HI-1000 capture immunoassay, ALP chemiluminescence; calibrator C3 (0.2846914 ug/mL), run 1.
For experiment [6] the target is unchanged. Nature of the experiment: HI-1000 capture immunoassay, ALP chemiluminescence; calibrator C2 (0.0711728 ug/mL), run 3.
Experiment [7] has the same target. As to the kind of experiment: HI-1000 capture immunoassay, ALP chemiluminescence; calibrator C1 (0.0177932 ug/mL), run 3.
Experiment [8] has the same target. As to the kind of experiment: HI-1000 capture immunoassay, ALP chemiluminescence; calibrator C2 (0.0711728 ug/mL), run 2.
For experiment [9] the target is unchanged. As to the kind of experiment: HI-1000 capture immunoassay, ALP chemiluminescence; calibrator C5 (7.686667 ug/mL), run 2.
Experiment [10] shares this target. Nature of the experiment: HI-1000 capture immunoassay, ALP chemiluminescence; calibrator C5 (7.686667 ug/mL), mean of 3.
Experiment [11] has the same target. Nature of the experiment: HI-1000 capture immunoassay, ALP chemiluminescence; calibrator C2 (0.0711728 ug/mL), mean of 3.
Experiment [12] has the same target. As to the kind of experiment: HI-1000 capture immunoassay, ALP chemiluminescence; calibrator C4 (2.562222 ug/mL), run 2.
Experiment [13] has the same target. As to the kind of experiment: HI-1000 capture immunoassay, ALP chemiluminescence; calibrator C4 (2.562222 ug/mL), run 1.
For experiment [14] the target is unchanged. As to the kind of experiment: HI-1000 capture immunoassay, ALP chemiluminescence; calibrator C5 (7.686667 ug/mL), run 3.
Experiment [15] shares this target. As to the kind of experiment: HI-1000 capture immunoassay, ALP chemiluminescence; calibrator C1 (0.0177932 ug/mL), run 1.
The target is the same in experiment [16]. Nature of the experiment: HI-1000 capture immunoassay, ALP chemiluminescence; calibrator C3 (0.2846914 ug/mL), run 3.
Experiment [17] shares this target. Nature of the experiment: HI-1000 capture immunoassay, ALP chemiluminescence; calibrator C4 (2.562222 ug/mL), mean of 3.
The target is the same in experiment [18]. As to the kind of experiment: HI-1000 capture immunoassay, ALP chemiluminescence; calibrator C2 (0.0711728 ug/mL), run 1.
Experiment [19] has the same target. As to the kind of experiment: HI-1000 capture immunoassay, ALP chemiluminescence; calibrator C5 (7.686667 ug/mL), run 1.
Experiment [20] has the same target. Nature of the experiment: HI-1000 capture immunoassay, ALP chemiluminescence; calibrator C3 (0.2846914 ug/mL), run 2.
Experiment [21] concerns the target polypeptide molecule 8 (human) (UniProt P05186). As to the kind of experiment: sandwich ELISA, ALP-labeled anti-TNAP detection; calibrator C1 (17.5 ug/mL), run 1. (An ELISA detects its analyte on a solid surface through an enzyme-linked reagent.)
Sequence of UniProt P05186 (P05186 other isoform, or with tags, fused parts or gaps limits assumed): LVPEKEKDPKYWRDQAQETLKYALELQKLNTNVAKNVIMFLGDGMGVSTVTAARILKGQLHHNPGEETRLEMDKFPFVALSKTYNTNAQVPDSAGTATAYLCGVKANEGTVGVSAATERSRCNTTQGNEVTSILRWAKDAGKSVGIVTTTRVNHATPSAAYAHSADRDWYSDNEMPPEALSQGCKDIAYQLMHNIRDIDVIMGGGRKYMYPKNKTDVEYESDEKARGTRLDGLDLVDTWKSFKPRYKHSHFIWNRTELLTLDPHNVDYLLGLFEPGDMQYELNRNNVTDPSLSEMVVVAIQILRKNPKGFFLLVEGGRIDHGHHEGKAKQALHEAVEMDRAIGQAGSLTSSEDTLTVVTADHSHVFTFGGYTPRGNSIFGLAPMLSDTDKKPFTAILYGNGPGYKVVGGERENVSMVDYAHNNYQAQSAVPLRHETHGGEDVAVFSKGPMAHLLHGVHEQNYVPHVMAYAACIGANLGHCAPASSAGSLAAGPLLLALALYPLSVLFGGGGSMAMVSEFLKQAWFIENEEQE
The target is the same in experiment [22]. As to the kind of experiment: sandwich ELISA, ALP-labeled anti-TNAP detection; calibrator C3 (70 ug/mL), run 2.
Experiment [23] has the same target. As to the kind of experiment: sandwich ELISA, ALP-labeled anti-TNAP detection; calibrator C2 (35 ug/mL), run 1.
The target is the same in experiment [24]. As to the kind of experiment: sandwich ELISA, ALP-labeled anti-TNAP detection; calibrator C4 (140 ug/mL), run 3.
Experiment [25] has the same target. As to the kind of experiment: sandwich ELISA, ALP-labeled anti-TNAP detection; calibrator C1 (17.5 ug/mL), run 2.
Experiment [26] has the same target. As to the kind of experiment: sandwich ELISA, ALP-labeled anti-TNAP detection; calibrator C2 (35 ug/mL), run 3.
Experiment [27] has the same target. As to the kind of experiment: sandwich ELISA, ALP-labeled anti-TNAP detection; calibrator C4 (140 ug/mL), run 2.
Experiment [28] has the same target. Nature of the experiment: sandwich ELISA, ALP-labeled anti-TNAP detection; calibrator C3 (70 ug/mL), mean of 3.
Experiment [29] has the same target. Nature of the experiment: sandwich ELISA, ALP-labeled anti-TNAP detection; calibrator C4 (140 ug/mL), run 1.
Experiment [30] has the same target. As to the kind of experiment: sandwich ELISA, ALP-labeled anti-TNAP detection; calibrator C1 (17.5 ug/mL), mean of 3.
Experiment [31] shares this target. As to the kind of experiment: sandwich ELISA, ALP-labeled anti-TNAP detection; calibrator C5 (280 ug/mL), run 2.
Experiment [32] shares this target. As to the kind of experiment: sandwich ELISA, ALP-labeled anti-TNAP detection; calibrator C3 (70 ug/mL), run 3.
Experiment [33] shares this target. Nature of the experiment: sandwich ELISA, ALP-labeled anti-TNAP detection; calibrator C2 (35 ug/mL), mean of 3.
Experiment [34] has the same target. As to the kind of experiment: sandwich ELISA, ALP-labeled anti-TNAP detection; calibrator C5 (280 ug/mL), run 1.
The target is the same in experiment [35]. As to the kind of experiment: sandwich ELISA, ALP-labeled anti-TNAP detection; calibrator C2 (35 ug/mL), run 2.
For experiment [36] the target is unchanged. Nature of the experiment: sandwich ELISA, ALP-labeled anti-TNAP detection; calibrator C4 (140 ug/mL), mean of 3.
For experiment [37] the target is unchanged. Nature of the experiment: sandwich ELISA, ALP-labeled anti-TNAP detection; calibrator C3 (70 ug/mL), run 1.
For experiment [38] the target is unchanged. Nature of the experiment: sandwich ELISA, ALP-labeled anti-TNAP detection; calibrator C5 (280 ug/mL), run 3.
Experiment [39] has the same target. As to the kind of experiment: sandwich ELISA, ALP-labeled anti-TNAP detection; calibrator C5 (280 ug/mL), mean of 3.
The target is the same in experiment [40]. Nature of the experiment: sandwich ELISA, ALP-labeled anti-TNAP detection; calibrator C1 (17.5 ug/mL), run 3.

Sequence of UniProt P19111 (P19111 other isoform, or with tags, fused parts or gaps limits assumed): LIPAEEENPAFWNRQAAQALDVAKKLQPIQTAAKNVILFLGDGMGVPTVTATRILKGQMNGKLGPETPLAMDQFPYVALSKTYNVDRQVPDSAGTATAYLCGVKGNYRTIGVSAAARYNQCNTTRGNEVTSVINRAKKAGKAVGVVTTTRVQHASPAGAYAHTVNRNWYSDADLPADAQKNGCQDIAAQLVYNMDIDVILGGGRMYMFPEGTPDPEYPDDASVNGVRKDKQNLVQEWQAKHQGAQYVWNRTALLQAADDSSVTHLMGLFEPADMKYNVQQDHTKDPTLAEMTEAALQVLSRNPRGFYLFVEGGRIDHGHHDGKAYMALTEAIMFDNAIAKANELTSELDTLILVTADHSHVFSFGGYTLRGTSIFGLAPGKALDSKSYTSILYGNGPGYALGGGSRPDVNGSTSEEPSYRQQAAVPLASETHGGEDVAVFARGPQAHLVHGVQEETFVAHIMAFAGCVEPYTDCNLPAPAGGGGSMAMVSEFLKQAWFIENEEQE

As for “biotin-labeled anti-Annexin A1 antibody (Clone: EH17a)”, the emission intensity (count), AV in [1] is 46600 count; in experiment [2], 3700 count; in experiment [10], 450000 count; in experiment [11] it was 13000 count; in experiment [17], 266000 count. The emission intensity (count) in [3] is 3650 count; in experiment [4] it was 271000 count; in experiment [5] it was 47000 count; in [6], 13000 count; in experiment [7], 3650 count; in experiment [8], 13100 count. In addition, the emission intensity (count) stood at 460000 count in experiment [9]; 260000 count in experiment [12]; 266000 count in [13]; 452000 count in [14]; 3800 count in [15]; 45800 count in [16]. Also, the emission intensity (count) in [18] amounted to 13000 count; in experiment [19], 439000 count; in [20], 46800 count.

In the case of “anti-Annexin A1 antibody (Santacruz, sc-12740)”, the relative emission intensity (RLU) was determined as 16500 RLU in experiment [21]; 33200 RLU in experiment [22]; 21600 RLU in experiment [23]; 50900 RLU in experiment [24]; 16400 RLU in experiment [25]; 25000 RLU in experiment [26]. The relative emission intensity (RLU) in experiment [27] is 51900 RLU; in [29], 50900 RLU; in experiment [31], 86100 RLU; in experiment [32], 32100 RLU; in experiment [34], 89000 RLU; in experiment [35] it was 21700 RLU. The relative emission intensity (RLU) in experiment [37] worked out at 31900 RLU; in experiment [38] it was 87800 RLU; in experiment [40], 17000 RLU. Moreover, the relative emission intensity (RLU), AV in experiment [28] was 32400 RLU; in experiment [30], 16700 RLU; in experiment [33], 22800 RLU; in [36] it was 51200 RLU; in experiment [39], 87600 RLU.
